We go through five substances from PMC6113430.

Assay [1] deals with human PD‐L1 (hPD‐L1), soluble, biotinylated (human) (UniProt Q9NZQ7). Nature of the assay: SPR.
In assay [2] the target is human PD‐L2 on mature dendritic cells (human) (UniProt Q9BQ51). Kind of assay: flow cytometry on cells.
The target in assay [3] is human PD‐L1 on the surface of tumor cells (human) (UniProt Q9NZQ7). Kind of assay: flow cytometry on cells.
The target of assay [4] is human PD‐L2 (hPD‐L2), soluble (human) (UniProt Q9BQ51). Kind of assay: SPR.

pEC50, pKd: −log10 of the molar value.

With “L4C11, PD‐1 variant with a single‐site mutation from glycine to valine (G124V) (designed binder)”, in assay [1], the pKd is 7.03, the T1/2 came out at 8.25 s and the koff was 0.121 s⁻¹.

In the case of “L5B7, high‐affinity PD‐1 variant (G124S, K131Y, A132I) (designed binder)”, the percent reduction of the MFI of anti-PD-L2 Ab (M1H18) at 1.0 × 10^-5 mol/L L5B7 in assay [2] is more than 40%. The substance further showed a pEC50 in assay [3] of 8.54. For the same substance, in assay [4], the pKd was 7.86, the T1/2 was 78.1 s and the off-rate constant (koff) was determined as 0.0128 s⁻¹. In addition, in assay [1], the pKd is 9.16 and the koff was 0.002 s⁻¹.

“hPD‐1 A132I point mutant (domain or fragment)”: in assay [1], the negative logarithm of the Kd (pKd) was 8.00.

“hPD‐1 with the combined mutation of G124V and A132I (domain or fragment)” showed a pKd in assay [1] of 9.01.

For “soluble human PD‐1 (hPD‐1) (domain or fragment)”, the negative-log EC50 (pEC50) in assay [3] was 5.31. In assay [4], this substance gave a pKd of 5.98 and a T1/2 of 2.68 s. In assay [1], this substance showed a pKd of 5.58.
